In patent US20080160035A1 (Regeneron, published 2008):
Residue numbers refer to the chain shown, from its start.

T1: mouse IL-4R (mouse, UniProt P16382 26-233, limits assumed)
T1 sequence (looked up): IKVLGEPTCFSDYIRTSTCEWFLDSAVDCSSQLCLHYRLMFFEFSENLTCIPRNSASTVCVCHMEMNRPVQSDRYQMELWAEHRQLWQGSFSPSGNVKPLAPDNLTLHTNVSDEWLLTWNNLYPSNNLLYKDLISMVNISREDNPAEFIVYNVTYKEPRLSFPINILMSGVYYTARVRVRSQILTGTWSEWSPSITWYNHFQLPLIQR

T2: dimeric hIL-4R-hFc (human, UniProt P24394 26-232)
T2 construct: also called hIL-4R-Fc; not shown: human Fc (hFc)
T2 sequence: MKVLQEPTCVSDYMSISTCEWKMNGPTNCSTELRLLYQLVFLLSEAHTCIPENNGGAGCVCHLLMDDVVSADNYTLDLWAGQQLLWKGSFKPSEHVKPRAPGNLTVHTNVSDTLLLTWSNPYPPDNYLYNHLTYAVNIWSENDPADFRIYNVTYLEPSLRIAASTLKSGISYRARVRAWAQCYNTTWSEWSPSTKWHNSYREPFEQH

T3: hIL-4R on cells (STAT6-transfected HEK293, TF1, TF1/A12) (human, UniProt P24394 26-825)
T3 sequence (looked up): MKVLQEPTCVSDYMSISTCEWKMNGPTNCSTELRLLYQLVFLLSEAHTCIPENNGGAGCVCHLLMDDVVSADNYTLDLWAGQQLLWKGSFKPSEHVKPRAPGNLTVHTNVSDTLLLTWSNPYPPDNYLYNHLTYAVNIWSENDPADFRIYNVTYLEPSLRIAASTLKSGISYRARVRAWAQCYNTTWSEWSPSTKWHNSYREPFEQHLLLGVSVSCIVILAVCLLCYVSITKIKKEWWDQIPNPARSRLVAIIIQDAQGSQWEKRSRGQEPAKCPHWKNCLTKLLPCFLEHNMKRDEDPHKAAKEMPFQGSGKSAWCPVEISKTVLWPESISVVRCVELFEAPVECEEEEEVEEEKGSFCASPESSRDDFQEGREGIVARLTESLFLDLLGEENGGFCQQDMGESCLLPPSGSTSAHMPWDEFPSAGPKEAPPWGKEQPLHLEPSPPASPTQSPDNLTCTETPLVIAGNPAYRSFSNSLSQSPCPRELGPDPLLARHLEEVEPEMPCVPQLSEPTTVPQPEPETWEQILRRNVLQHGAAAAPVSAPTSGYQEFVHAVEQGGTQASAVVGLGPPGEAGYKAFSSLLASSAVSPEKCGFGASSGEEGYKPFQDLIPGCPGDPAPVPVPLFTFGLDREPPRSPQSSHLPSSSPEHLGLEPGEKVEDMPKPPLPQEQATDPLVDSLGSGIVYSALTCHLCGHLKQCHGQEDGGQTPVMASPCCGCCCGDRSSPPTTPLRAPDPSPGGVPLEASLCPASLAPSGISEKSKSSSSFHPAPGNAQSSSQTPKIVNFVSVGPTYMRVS

T4: monomeric hIL-4R (R&D Systems) (human, UniProt P24394 26-231)
T4 construct: Bought (R&D Systems); also called hIL-4R monomer
T4 sequence: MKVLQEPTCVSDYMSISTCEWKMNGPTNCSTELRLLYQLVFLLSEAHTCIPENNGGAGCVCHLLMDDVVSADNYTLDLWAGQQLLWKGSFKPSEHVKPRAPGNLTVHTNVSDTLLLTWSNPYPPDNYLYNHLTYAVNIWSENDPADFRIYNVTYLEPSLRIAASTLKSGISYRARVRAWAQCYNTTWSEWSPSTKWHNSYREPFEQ

B1: VAB 7B9-3 (antibody, V domains shown)
VH: QVQLVQSGAEVKKPGASVKVSCKDSAYTFNRYGISWVRQAPGQGLEWMGWISAYTGNTVYAQKLQGRVTMTTDNSTSTAYMELRSLRSDDTAVYYCARDKSIFGVVRGFDYWGQGTLVTVSS
VL: EIVMTQSPVTLSLSPGERATLPCRASQSVSSSLAWYQQKAGQSPRLLIYGASTRATGIPARFSGSGSGTEFTLTISNLQSEDFAVYYCQQYNNWPLTFGGGTKVEIK
notes: Apparently tested with mouse constant region (anti-mouse IgG capture/detection)
B2: VAK5H4-4 (antibody, V domains shown)
VH: QVRLVESGGGVVQPGGSLRLSCVASGFTFRSYGMHWVRQAPGRGLEWVAVISYDGSKTFYVDSVKVRFTISRDNSKNTLYLEMNSLRVDDTAVYFCVKEGRSGSWFDPWGQGTLVAVSS
VL: DIQMTQSPSSLSASVGDRVTITCRASQAINNFLAWFQQKPGKTPNSLIFATSSLQSGVPSRFSAGGSGTDFTLTISSLQPEDFATYYCQQYNSHPWTFGQGTKVEIK
notes: as for B1
B3: VAK10G6-7 (antibody, V domains shown)
VH: QVQLVESGGGVVQPGRSLRLSCTASGFTFSSFGMHWVRQAPGRGLEWVAVISYDGSKKYYADSVKVRFTISRDNSKNTLYLQMNSLRVDDTAVYFCAKEGRTGNWFDPWGQGTLVAVSS
VL: B2 VL with F32Y, N45K, A64G, G65T, K107R
notes: as for B1
B4: VAK10G12-5 (antibody, V domains shown)
VH: B3 VH with R16G, T23A, F32Y, I51L, K58E, Y59F, I70V, N84S, D89E, V93I
VL: B2 VL with N45K, A64G, G65S, G66E
notes: as for B1
B5: VAK7G8-5 (antibody, V domains shown)
VH: B2 VH with V23T, T28I
VL: B2 VL with Q3H, N45K, A64G, G65S, K107R
notes: as for B1
B6: VAK11D4-1 (antibody, V domains shown)
VH: B2 VH with G16R, K57Q, K76N
VL: B2 VL with Q3H, F32Y, K42R, N45K, A64G, G65S
notes: as for B1
B7: VAK9C6-11 (antibody, V domains shown)
VH: QVQLVESGGGVVQPGRSLRLSCAASGFTFSSYGMHWVRQAPGKGLEWVTVISYDGSIKYYVDSVKGRFTISRDNSKNTLFLQMNSLRVEDTAVYYCAKEGRKYGMDVWGQGTTVTVSS
VL: DIQMTQSPSTLSASVGDRVTITCRASQIISSLLVWYQQKPGKAPKLLIYKASSLESGVPSRFSGSGSGTEFTLTISSLQPDDFATYYCQQYHSYMYTFGQGTKLEIK
notes: as for B1
B8: VAK12B11-9 (antibody, V domains shown)
VH: QVQLVESGGGVVQPGRSLRLSCAASGFTFSSYAMYWVRQAPGKGLEWVAVISYDGSNKYYTDSVKGRFTVSRDNSKNTLFLQMNSLRAEDTALYYCAKESSSYGLDVWGQGTTVTVSS
VL: B7 VL with T20A, I28S, S31N, L32W, V34A, Y49S, E55K, T85A, H92N, M95S
notes: as for B1

target: T1, mouse IL-4R; assay: binding affinity test of Example 2 (method not restated)

binding result	Binder
no binding	B1
no binding	B2
no binding	B3
no binding	B4
no binding	B5
no binding	B6
no binding	B7
no binding	B8

target: T2, dimeric hIL-4R-hFc; assay: SPR; reduction of hIL-4 (50 nM) binding to captured hIL-4R-hFc after antibody; competitor hIL-4
Description: Purified hIL-4R-hFc molecules were captured by goat anti-human IgG polyclonal antibody immobilized on CM-5 to a density of 260 RU, to prepare a receptor-coated surface.

% Inhibition (BIAcore) [%]	Binder
96	B1
96	B2
95	B3
94	B4
95	B5
95	B6
96	B7
96	B8

target: T3, hIL-4R on cells (STAT6-transfected …); assay: cell-based or functional assay

STAT6 Bioassay IC50 (HEK293 STAT6 luciferase, 40 pM hIL-13)	TF1 Bioassay IC50 (proliferation, 150 pM hIL-13) [nM]	Binder
1.1 nM	–	B1
84 pM	0.24	B2
70 pM	0.46	B3
0.26 nM	1.9	B4
40 pM	0.36	B5
0.14 nM	0.44	B6
0.3 nM	1	B7
0.37 nM	1.6	B8

target: T2, dimeric hIL-4R-hFc; assay: ELISA; antibody titrated against 25 pM hIL-4R-Fc, free receptor caught on hIL-4 plate
Protocol: Concentration of free hIL-4R-Fc (no antibody bound) was determined using a hIL-4R-specific sandwich ELISA. […] After a one-hour incubation at room temperature, the detection plate was washed and plate-bound hIL-4R-hFc was detected using HRP conjugated goat anti-hFc polyclonal antibodies and developed using colorimetric substrates such as BD OptEIA™ (BD Biosciences Pharmingen, San Diego, Calif.). After the reaction was stopped with 1 M phosphoric or sulfuric acid, absorbances at 450 nm were recorded and the data were analyzed using GraphPad™ Prism software.

IC50 [pM]	Binder
59	B1
33	B2
37	B3
59	B4
27	B5
35	B6
67	B7
99	B8

target: T3, hIL-4R on cells (STAT6-transfected …); assay: cell-based or functional assay; remark: another data set of the same source

STAT6 Bioassay IC50 (HEK293 STAT6 luciferase, 10 pM hIL-4)	TF1/A12 Bioassay IC50 (proliferation, 20 pM hIL-4) [nM]	TF1 Bioassay IC50 (proliferation, 50 pM hIL-4) [nM]	Binder
3.4 nM	8.2	–	B1
0.132 nM	0.182	0.15	B2
0.11 nM	–	0.23	B3
0.36 nM	–	0.58	B4
60 pM	–	0.13	B5
0.2 nM	–	0.2	B6
0.48 nM	–	0.31	B7
0.49 nM	–	0.57	B8

target: T4, monomeric hIL-4R (R&D Systems); assay: SPR (BIAcore 2000); antibody captured, monomeric hIL-4R injected
Protocol: (§1) Binding affinity (KD) of selected antibodies with respect to hIL-4R was determined using a real-time biosensor surface plasmon resonance assay (BIAcore™ 2000). Briefly, antibody was captured on a goat anti-mouse (GAM) IgG polyclonal antibody surface created through direct chemical coupling of the GAM IgG to a BIAcore™ chip to form a captured antibody surface. […] Binding of antigen to antibody and dissociation of the bound complex, were monitored in real time. Equilibrium dissociation constants (KD) and dissociation rate constants were ascertained by performing kinetic analysis using BIA evaluation software. BIA evaluation software was also used to calculate the half-life of antigen/antibody complex dissociation (T_{1/2}). […] The binding affinity of anti-hIL-4R antibodies to either mouse or monkey (Macaca fascicularis) IL-4R was also tested.

Kd [pM]	T1/2 monomeric [h]	Binder
1010	0.217	B1
20	16	B2
230	2.4	B3
90	6	B4
60	8	B5
50	8	B6
2050	0.467	B7
410	2	B8

target: T2, dimeric hIL-4R-hFc; assay: SPR (BIAcore 2000); antibody captured, dimeric hIL-4R-hFc injected
Protocol: as §1

Kd [pM]	T1/2 dimeric [h]	Binder
52	6.1	B1
4	30	B2
11	24	B3
7	46	B4
9	25	B5
6	21	B6
68	7	B7
36	12	B8
